Reference: patent US20150344570A1 (published 2015)

T1: FcγRIIa R (extracellular domain, His tag at the C terminus) (human, UniProt P12318 34-217)
T1 construct: extracellular domain; Soluble analyte in Biacore; also called FcgRIIa R type; 2aR
T1 sequence (looked up): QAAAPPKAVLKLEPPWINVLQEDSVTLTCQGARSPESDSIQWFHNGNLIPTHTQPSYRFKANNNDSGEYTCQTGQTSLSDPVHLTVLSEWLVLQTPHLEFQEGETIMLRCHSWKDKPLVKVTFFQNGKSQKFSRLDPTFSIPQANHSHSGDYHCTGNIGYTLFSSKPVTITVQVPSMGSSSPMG


Biological target: T1, FcγRIIa R (extracellular domain, His …)
Test: SPR (Biacore), relative binding, control GpH7-A5/GpH7-B3/GpL16-k0 = 100
Experimental: Analysis of interaction between objective antibody and the FcγR was carried out using Biacore T100 (GE Healthcare). HBS-EP+ (GE Healthcare) was used as the running buffer, and the measurement temperature was set to 25° C. Chips produced by immobilizing the antigen peptide by the amine coupling method to a Series S Sencor Chip CM5 (GE Healthcare), or alternatively, chips produced by allowing preliminarily biotinylated antigen peptides to interact with and immobilize onto a Series S Sensor Chip SA (certified) (GE Healthcare) were used. Antibodies of interest were captured onto an antigen peptide-immobilized chip, and allowed to interact to each FcγR diluted with running buffer. To regenerate and repeatedly use the chip, the antibodies captured on the chip were washed off by reacting 10 mM glycine-HCl, pH 1.5.

He/Con_2aR	Binder
106 % of control	GpH7-A5/GpH7-B3 variant T335_18N/GpL16-k0 (antibody, human IgG1, kappa, heterodimerized; also called He Ab) heavy 1: not shown heavy 2: not shown light: DIVMTQSPLSLPVTPGEPASISCQASESLVHSNRNTYLHWYLQKPGQSPQLLIYKVSNRFSGVPDRFSGSGSGTDFTLKISRVEAEDVGVYYCSQNTHVPPTFGQGTKVEIERTVAAPSVFIFPPSDEQLKSGTASVVCLLNNFYPREAKVQWKVDNALQSGNSQESVTEQDSKDSTYSLSSTLTLSKADYEKHKVYACEVTHQGLSSPVTKSFNRGEC
106 % of control	GpH7-A5/GpH7-B3 variant T335_19Q/GpL16-k0 (antibody, human IgG1, kappa, heterodimerized; also called He Ab) heavy 1: not shown heavy 2: not shown light: DIVMTQSPLSLPVTPGEPASISCQASESLVHSNRNTYLHWYLQKPGQSPQLLIYKVSNRFSGVPDRFSGSGSGTDFTLKISRVEAEDVGVYYCSQNTHVPPTFGQGTKVEIERTVAAPSVFIFPPSDEQLKSGTASVVCLLNNFYPREAKVQWKVDNALQSGNSQESVTEQDSKDSTYSLSSTLTLSKADYEKHKVYACEVTHQGLSSPVTKSFNRGEC
108 % of control	GpH7-A5/GpH7-B3 variant T335_16H/GpL16-k0 (antibody, human IgG1, kappa, heterodimerized; also called He Ab) heavy 1: not shown heavy 2: not shown light: DIVMTQSPLSLPVTPGEPASISCQASESLVHSNRNTYLHWYLQKPGQSPQLLIYKVSNRFSGVPDRFSGSGSGTDFTLKISRVEAEDVGVYYCSQNTHVPPTFGQGTKVEIERTVAAPSVFIFPPSDEQLKSGTASVVCLLNNFYPREAKVQWKVDNALQSGNSQESVTEQDSKDSTYSLSSTLTLSKADYEKHKVYACEVTHQGLSSPVTKSFNRGEC
108 % of control	GpH7-A5/GpH7-B3 variant T335_08L/GpL16-k0 (antibody, human IgG1, kappa, heterodimerized; also called He Ab) heavy 1: not shown heavy 2: not shown light: DIVMTQSPLSLPVTPGEPASISCQASESLVHSNRNTYLHWYLQKPGQSPQLLIYKVSNRFSGVPDRFSGSGSGTDFTLKISRVEAEDVGVYYCSQNTHVPPTFGQGTKVEIERTVAAPSVFIFPPSDEQLKSGTASVVCLLNNFYPREAKVQWKVDNALQSGNSQESVTEQDSKDSTYSLSSTLTLSKADYEKHKVYACEVTHQGLSSPVTKSFNRGEC
110 % of control	GpH7-A5/GpH7-B3 variant T335_09D/GpL16-k0 (antibody, human IgG1, kappa, heterodimerized; also called He Ab) heavy 1: not shown heavy 2: not shown light: DIVMTQSPLSLPVTPGEPASISCQASESLVHSNRNTYLHWYLQKPGQSPQLLIYKVSNRFSGVPDRFSGSGSGTDFTLKISRVEAEDVGVYYCSQNTHVPPTFGQGTKVEIERTVAAPSVFIFPPSDEQLKSGTASVVCLLNNFYPREAKVQWKVDNALQSGNSQESVTEQDSKDSTYSLSSTLTLSKADYEKHKVYACEVTHQGLSSPVTKSFNRGEC
108 % of control	GpH7-A5/GpH7-B3 variant T335_04F/GpL16-k0 (antibody, human IgG1, kappa, heterodimerized; also called He Ab) heavy 1: not shown heavy 2: not shown light: DIVMTQSPLSLPVTPGEPASISCQASESLVHSNRNTYLHWYLQKPGQSPQLLIYKVSNRFSGVPDRFSGSGSGTDFTLKISRVEAEDVGVYYCSQNTHVPPTFGQGTKVEIERTVAAPSVFIFPPSDEQLKSGTASVVCLLNNFYPREAKVQWKVDNALQSGNSQESVTEQDSKDSTYSLSSTLTLSKADYEKHKVYACEVTHQGLSSPVTKSFNRGEC
110 % of control	GpH7-A5/GpH7-B3 variant S337_14T/GpL16-k0 (antibody, human IgG1, kappa, heterodimerized; also called He Ab) heavy 1: not shown heavy 2: not shown light: DIVMTQSPLSLPVTPGEPASISCQASESLVHSNRNTYLHWYLQKPGQSPQLLIYKVSNRFSGVPDRFSGSGSGTDFTLKISRVEAEDVGVYYCSQNTHVPPTFGQGTKVEIERTVAAPSVFIFPPSDEQLKSGTASVVCLLNNFYPREAKVQWKVDNALQSGNSQESVTEQDSKDSTYSLSSTLTLSKADYEKHKVYACEVTHQGLSSPVTKSFNRGEC
105 % of control	GpH7-A5/GpH7-B3 variant T335_06M/GpL16-k0 (antibody, human IgG1, kappa, heterodimerized; also called He Ab) heavy 1: not shown heavy 2: not shown light: DIVMTQSPLSLPVTPGEPASISCQASESLVHSNRNTYLHWYLQKPGQSPQLLIYKVSNRFSGVPDRFSGSGSGTDFTLKISRVEAEDVGVYYCSQNTHVPPTFGQGTKVEIERTVAAPSVFIFPPSDEQLKSGTASVVCLLNNFYPREAKVQWKVDNALQSGNSQESVTEQDSKDSTYSLSSTLTLSKADYEKHKVYACEVTHQGLSSPVTKSFNRGEC

The next lines start with the binder.

Binder	He/Con_2aR
GpH7-A5/GpH7-B3 variant K334_18N/GpL16-k0 (antibody, human IgG1, kappa, heterodimerized; also called He Ab) heavy 1: not shown heavy 2: not shown light: DIVMTQSPLSLPVTPGEPASISCQASESLVHSNRNTYLHWYLQKPGQSPQLLIYKVSNRFSGVPDRFSGSGSGTDFTLKISRVEAEDVGVYYCSQNTHVPPTFGQGTKVEIERTVAAPSVFIFPPSDEQLKSGTASVVCLLNNFYPREAKVQWKVDNALQSGNSQESVTEQDSKDSTYSLSSTLTLSKADYEKHKVYACEVTHQGLSSPVTKSFNRGEC	112 % of control
GpH7-A5/GpH7-B3 variant L328_03V/GpL16-k0 (antibody, human IgG1, kappa, heterodimerized; also called He Ab) heavy 1: not shown heavy 2: not shown light: DIVMTQSPLSLPVTPGEPASISCQASESLVHSNRNTYLHWYLQKPGQSPQLLIYKVSNRFSGVPDRFSGSGSGTDFTLKISRVEAEDVGVYYCSQNTHVPPTFGQGTKVEIERTVAAPSVFIFPPSDEQLKSGTASVVCLLNNFYPREAKVQWKVDNALQSGNSQESVTEQDSKDSTYSLSSTLTLSKADYEKHKVYACEVTHQGLSSPVTKSFNRGEC	116 % of control
GpH7-A5/GpH7-B3 variant S267_07I/GpL16-k0 (antibody, human IgG1, kappa, heterodimerized; also called He Ab) heavy 1: not shown heavy 2: not shown light: DIVMTQSPLSLPVTPGEPASISCQASESLVHSNRNTYLHWYLQKPGQSPQLLIYKVSNRFSGVPDRFSGSGSGTDFTLKISRVEAEDVGVYYCSQNTHVPPTFGQGTKVEIERTVAAPSVFIFPPSDEQLKSGTASVVCLLNNFYPREAKVQWKVDNALQSGNSQESVTEQDSKDSTYSLSSTLTLSKADYEKHKVYACEVTHQGLSSPVTKSFNRGEC	111 % of control
GpH7-A5/GpH7-B3 variant S239_09D/GpL16-k0 (antibody, human IgG1, kappa, heterodimerized; also called He Ab) heavy 1: not shown heavy 2: not shown light: DIVMTQSPLSLPVTPGEPASISCQASESLVHSNRNTYLHWYLQKPGQSPQLLIYKVSNRFSGVPDRFSGSGSGTDFTLKISRVEAEDVGVYYCSQNTHVPPTFGQGTKVEIERTVAAPSVFIFPPSDEQLKSGTASVVCLLNNFYPREAKVQWKVDNALQSGNSQESVTEQDSKDSTYSLSSTLTLSKADYEKHKVYACEVTHQGLSSPVTKSFNRGEC	137 % of control
GpH7-A5/GpH7-B3 variant S267_02A/GpL16-k0 (antibody, human IgG1, kappa, heterodimerized; also called He Ab) heavy 1: not shown heavy 2: not shown light: DIVMTQSPLSLPVTPGEPASISCQASESLVHSNRNTYLHWYLQKPGQSPQLLIYKVSNRFSGVPDRFSGSGSGTDFTLKISRVEAEDVGVYYCSQNTHVPPTFGQGTKVEIERTVAAPSVFIFPPSDEQLKSGTASVVCLLNNFYPREAKVQWKVDNALQSGNSQESVTEQDSKDSTYSLSSTLTLSKADYEKHKVYACEVTHQGLSSPVTKSFNRGEC	155 % of control
GpH7-A5/GpH7-B3 variant L328_06M/GpL16-k0 (antibody, human IgG1, kappa, heterodimerized; also called He Ab) heavy 1: not shown heavy 2: not shown light: DIVMTQSPLSLPVTPGEPASISCQASESLVHSNRNTYLHWYLQKPGQSPQLLIYKVSNRFSGVPDRFSGSGSGTDFTLKISRVEAEDVGVYYCSQNTHVPPTFGQGTKVEIERTVAAPSVFIFPPSDEQLKSGTASVVCLLNNFYPREAKVQWKVDNALQSGNSQESVTEQDSKDSTYSLSSTLTLSKADYEKHKVYACEVTHQGLSSPVTKSFNRGEC	115 % of control
GpH7-A5/GpH7-B3 variant S239_01G/GpL16-k0 (antibody, human IgG1, kappa, heterodimerized; also called He Ab) heavy 1: not shown heavy 2: not shown light: DIVMTQSPLSLPVTPGEPASISCQASESLVHSNRNTYLHWYLQKPGQSPQLLIYKVSNRFSGVPDRFSGSGSGTDFTLKISRVEAEDVGVYYCSQNTHVPPTFGQGTKVEIERTVAAPSVFIFPPSDEQLKSGTASVVCLLNNFYPREAKVQWKVDNALQSGNSQESVTEQDSKDSTYSLSSTLTLSKADYEKHKVYACEVTHQGLSSPVTKSFNRGEC	128 % of control
GpH7-A5/GpH7-B3 variant S267_01G/GpL16-k0 (antibody, human IgG1, kappa, heterodimerized; also called He Ab) heavy 1: not shown heavy 2: not shown light: DIVMTQSPLSLPVTPGEPASISCQASESLVHSNRNTYLHWYLQKPGQSPQLLIYKVSNRFSGVPDRFSGSGSGTDFTLKISRVEAEDVGVYYCSQNTHVPPTFGQGTKVEIERTVAAPSVFIFPPSDEQLKSGTASVVCLLNNFYPREAKVQWKVDNALQSGNSQESVTEQDSKDSTYSLSSTLTLSKADYEKHKVYACEVTHQGLSSPVTKSFNRGEC	113 % of control
GpH7-A5/GpH7-B3 variant L328_07I/GpL16-k0 (antibody, human IgG1, kappa, heterodimerized; also called He Ab) heavy 1: not shown heavy 2: not shown light: DIVMTQSPLSLPVTPGEPASISCQASESLVHSNRNTYLHWYLQKPGQSPQLLIYKVSNRFSGVPDRFSGSGSGTDFTLKISRVEAEDVGVYYCSQNTHVPPTFGQGTKVEIERTVAAPSVFIFPPSDEQLKSGTASVVCLLNNFYPREAKVQWKVDNALQSGNSQESVTEQDSKDSTYSLSSTLTLSKADYEKHKVYACEVTHQGLSSPVTKSFNRGEC	124 % of control
GpH7-A5/GpH7-B3 variant P238_08L/GpL16-k0 (antibody, human IgG1, kappa, heterodimerized; also called He Ab) heavy 1: not shown heavy 2: not shown light: DIVMTQSPLSLPVTPGEPASISCQASESLVHSNRNTYLHWYLQKPGQSPQLLIYKVSNRFSGVPDRFSGSGSGTDFTLKISRVEAEDVGVYYCSQNTHVPPTFGQGTKVEIERTVAAPSVFIFPPSDEQLKSGTASVVCLLNNFYPREAKVQWKVDNALQSGNSQESVTEQDSKDSTYSLSSTLTLSKADYEKHKVYACEVTHQGLSSPVTKSFNRGEC	140 % of control
GpH7-A5/GpH7-B3 variant L328_15Y/GpL16-k0 (antibody, human IgG1, kappa, heterodimerized; also called He Ab) heavy 1: not shown heavy 2: not shown light: DIVMTQSPLSLPVTPGEPASISCQASESLVHSNRNTYLHWYLQKPGQSPQLLIYKVSNRFSGVPDRFSGSGSGTDFTLKISRVEAEDVGVYYCSQNTHVPPTFGQGTKVEIERTVAAPSVFIFPPSDEQLKSGTASVVCLLNNFYPREAKVQWKVDNALQSGNSQESVTEQDSKDSTYSLSSTLTLSKADYEKHKVYACEVTHQGLSSPVTKSFNRGEC	136 % of control
GpH7-A5/GpH7-B3 variant L328_04F/GpL16-k0 (antibody, human IgG1, kappa, heterodimerized; also called He Ab) heavy 1: not shown heavy 2: not shown light: DIVMTQSPLSLPVTPGEPASISCQASESLVHSNRNTYLHWYLQKPGQSPQLLIYKVSNRFSGVPDRFSGSGSGTDFTLKISRVEAEDVGVYYCSQNTHVPPTFGQGTKVEIERTVAAPSVFIFPPSDEQLKSGTASVVCLLNNFYPREAKVQWKVDNALQSGNSQESVTEQDSKDSTYSLSSTLTLSKADYEKHKVYACEVTHQGLSSPVTKSFNRGEC	138 % of control
GpH7-A5/GpH7-B3 variant P271_01G/GpL16-k0 (antibody, human IgG1, kappa, heterodimerized; also called He Ab) heavy 1: not shown heavy 2: not shown light: DIVMTQSPLSLPVTPGEPASISCQASESLVHSNRNTYLHWYLQKPGQSPQLLIYKVSNRFSGVPDRFSGSGSGTDFTLKISRVEAEDVGVYYCSQNTHVPPTFGQGTKVEIERTVAAPSVFIFPPSDEQLKSGTASVVCLLNNFYPREAKVQWKVDNALQSGNSQESVTEQDSKDSTYSLSSTLTLSKADYEKHKVYACEVTHQGLSSPVTKSFNRGEC	144 % of control
